Source: US20200069775A1, “BRAIN OSTEOCALCIN RECEPTOR AND COGNITIVE DISORDERS” (The Trustees of Columbia University in the City of New York, priority 2017, published 2020)

What was measured:
[1] = Blood brain barrier crossing: subcutaneous pump infusion, content in blood, bone and brain parts by ELISA; format: in vivo, mouse; conditions: Osteocalcin−/− mice, subcutaneous pumps 50 ng/hour, seven days
Method: Osteocalcin−/−, Gprc6a−/−, Osteocalcin-mCherry, and Osteocalcin foxed mice have been previously described (Ducy et al., 1996, Nature 382:448-452; Oury et al., 2011, Cell 144:796-809). Mouse genotypes were determined by PCR. For all experiments, controls were littermate female WT, Cre-expressing, or flox/flox. All mice were maintained on a pure 129-Sv genetic background except for the inducible deletion Osteocalcin model (mix background: 25% C57/BL6 and 75% 129sv). For inducible gene deletion mice, tamoxifen was prepared in corn oil and injected intraperitoneally (IP) (1 mg/20g of body weight) over one week. For osteocalcin delivery to pregnant mice, IP injections (240 ng/day) were performed as soon as a plug was present daily until delivery (E0.5-E18.5). For osteocalcin or leptin infusion in adult Osteocalcin−/− or ob/ob mice, pumps (Alzet micro-osmotic pump, Model 1002) delivering osteocalcin (300 ng/hr), leptin (50 ng/hr), or vehicle were surgically installed subcutaneously in the backs of 3-month old mice. For the postnatal rescue of cognitive functions in Osteocalcin−/− mice, osteocalcin (10 ng/hour) or vehicle were delivered intrasubventricularly (icv) as previously described (Ducy et al., 2000, Cell 100:197-207). Leptin and osteocalcin content in sera and tissues were determined by ELISA.
To understand how this behavioral phenotype develops, whether osteocalcin crosses the blood brain barrier (BBB) was tested by installing pumps that subcutaneously delivered vehicle or uncarboxylated osteocalcin (50 ng/hour) in three-month-old Osteocalcin−/− mice. The positive control for this experiment was subcutaneous infusion of leptin (50 ng/hour) in 3 month-old ob/ob mice, since leptin is known to cross the BBB (Banks et al., 1996, Peptides 17:305-311). Seven days later, osteocalcin and leptin content were measured in blood, bone, and in various parts of the brain in Osteocalcin−/− and ob/ob mice, respectively.

3 month-old WT mice = assay: Alendronate treatment with or without osteocalcin, MWMT and NOR; format: in vivo, mouse; conditions: peripheral delivery of osteocalcin, 60 ng/hr by osmotic pump
Method: For plasma injection experiments, 100 μl of plasma were injected 8 times during 24 days, via tail vein. Each group described is represented individually in each panel. For osteocalcin delivery in WT mice, pumps (Alzet micro-osmotic pump, Model 1002) delivering osteocalcin (30 ng/hr for 12 month-old and 90 ng/hr for 16 month-old mice), or vehicle, were surgically installed subcutaneously in the back of mice. […] Control mice receiving vehicle or mice receiving alendronate were implanted with osmotic pumps delivering vehicle only.
Morris water maze test: Animals are transported to the testing room in their home cages, and left undisturbed for at least 30 minutes prior to the first trial. The maze is comprised of a large swimming pool (150cm diameter) filled with water (23° C.) made opaque with non-toxic white paint. The pool is located in a brightly lit room filled with visual cues, including geometric figures on the walls of the maze demarking the four fixed starting positions of the trials, at (12:00, 3:00, 6:00 and 9:00). A 15 cm round platform is hidden 1 cm beneath the surface of the water at a fixed position. Each daily trial block consisted of four swimming trials, with each mouse starting from the same randomly chosen starting position. The starting position is varied between days. On day 1, mice that fail to find the platform within 2 min are guided to the platform. They must remain on the platform for 15 s before they are returned to their home cage. Mice are not guided to the platform after day 1, and the time it takes them to reach the platform over repeated trials ([…] for the next 10 days) is recorded as a measure of spatial learning.
Novel object recognition test (NOR): The NOR paradigm assesses the rodent's ability to recognize a novel object in the environment. The NOR task will be conducted, as previously described7, in an opaque plastic box using 2 different objects: (1) a clear plastic funnel (diameter 8.5 cm, maximal height 8.5 cm) and (2) a black plastic box (9.5 cm^3). These objects elicit equal levels of exploration as determined in pilot experiments (Denny, C. A., et al., 2012, Hippocampus 22:1188-1201; Oury, F., et al., 2013, Cell 155:228-241). The NOR paradigm consists of 3 exposures over the course of 3 days. On day 1, the habituation phase, mice are given 5 minutes to explore the empty arena, without any objects. On day 2, the familiarization phase, mice are given 10 minutes to explore 2 identical objects, placed at opposite ends of the box. On day 3, the test phase, mice are given 15 minutes to explore 2 objects, one novel object and a copy of the object from the familiarization phase. The object that serves as the novel object (either the funnel or the box) as well as the left/right starting position of the objects are counterbalanced within each group. Mice are placed in the center of the arena at the start of each exposure. […] Preference for the novel object is assessed based on the fraction of time that a mouse spends exploring the novel object compared to the familiar object. Exploration is scored from video recordings of each exposure and recorded using the Stopwatch program. […]
Streptavidin were added for 30 minutes at room temperature followed by PBS washes. […] For hormonal measurement; circulating levels of the carboxylated, undercarboxylated or uncarboxylated forms of osteocalcin were measured by ELISA. CTX content in serum (ng/ml) were measured with specific ELISAs (RatLaps™ (CTX-I) EIA (Immunodiagnosticsystems).

osteocalcin: Recombinant osteocalcin bacterially produced, cleaved from the GST subunit; completely undercarboxylated at all three sites; full-length mouse osteocalcin (YLGASVPSPDPLEPTREQCELNPACDELSDQYGLKTAYKRIYGITI)
osteocalcin accumulation in parts of the brain [1]: accumulated in Osteocalcin−/− mice in the brainstem, thalamus, and hypothalamus
osteocalcin concentration in brainstem, thalamus, and hypothalamus relative to that observed in serum [1]: ~50%
behavioral abnormalities (MWMT, NOR) of alendronate-treated mice (3 month-old WT mice): corrected
